Measurements: PMC3935945, “Insight into Highly Conserved H1 Subtype-Specific Epitopes in Influenza Virus Hemagglutinin” (PLoS ONE, 2014)

Columns and labels:
Experiment in all cases: ELISA
[1] = target: T1, hemagglutinin (HA) of H1N1 A/Thailand/CU44/2006 (CU44) (Influenza A virus A/Thailand/CU44/2006 …, UniProt A7LI25, strain); conditions: both partners purified
T1 construct: also called CU44 HA

[2] = target: T2, recombinant hemagglutinin (HA) of 2009 pandemic virus A/Korea/01/2009 (KR01) (Influenza A virus A/Korea/01/2009 (H1N1), strain); conditions: both partners purified
T2 construct: also called KR01 HA; H1N1 HA

[3] = target: T3, HA from A/Brisbane/59/2007(H1N1) (Influenza A virus A/Brisbane/59/2007 …, UniProt D5F1Q8, strain)
T3 construct: also called BR59

[4] = target: T4, HA from A/California/04/2009(H1N1) (Influenza A virus A/California/04/2009 …, UniProt C3W5S1, strain)
T4 construct: also called CA04

[5] = target: T5, HA from A/California/07/2009(H1N1) (Influenza A virus A/California/07/2009 …, UniProt C3W5X2, strain)
T5 construct: also called CA07

Measured: binding result

B1: H1-specific monoclonal antibody GC0587 (antibody, V domains shown)
VH: VKLQQSGGGVVQPGGSLRLSCAASGFTFSDYDMSWIRQAPGKGLEWVSGILGGSERSYYRDSVKGRFTISRDNSRKTLYLQMNSLRAEDTAVYYCARHGSPGYTLYAWDYWGQGTMVTVSS
VL: DIQMTQSPASLAVSPGQRATITCRASESVSNYGINFINWFQQKPGQPPKLLIYTASNKGTGVPARFSGSGSGTDFTLTINPVEAEDTANYFCQQTKEVPYTFGGGTKLEIK
notes: copies: 2 + 2
binds: all assays above

B2: H1-specific monoclonal antibody GC0757 (antibody, V domains shown)
VH: VKLQESGAVVQPGGSLRLSCAASGFTGSDYDMSWIRQAPGKGLEWVSGILGGSERSYYRDSVKGRSTISRDNSRKTLYLEMNSLRAEDTAVYYCARHSWGAYVQYGMDGWGQGTTVTVSS
VL: DIQMTQSPASLAVSPGQRATITCRASESVSNYGINFINWFQQKPGQPPKLLIYTASNKGTGVPARFSGSGSGTDFTLTINPVEAEDTANYFCQQTKEVPYGTFGGTKLEIK
notes: copies: 2 + 2
binds: all assays above
